Results as given in doi:10.1101/2025.09.14.676084, “A validated antibody toolbox for ALS research” (bioRxiv, 2025).

Biological target: T1, PFN1 (Homo sapiens (assumed; ALS risk gene …, UniProt P07737)
T1 construct: PFN1, the protein encoded by the ALS risk gene PFN1; Surmised: endogenous protein in the lysate of a human cell line, as in the YCharOS workflow; also called profilin-1 (protein encoded by the ALS risk gene PFN1)
Experiment: immunoprecipitation, detected by immunoblot; the antibody was used to immunoprecipitate its target; counted as successful when the target protein was specifically enriched relative to the starting material, confirmed by immunoblot of the immunoprecipitated protein
Conditions: one partner purified

T1 sequence (P07737 whole entry): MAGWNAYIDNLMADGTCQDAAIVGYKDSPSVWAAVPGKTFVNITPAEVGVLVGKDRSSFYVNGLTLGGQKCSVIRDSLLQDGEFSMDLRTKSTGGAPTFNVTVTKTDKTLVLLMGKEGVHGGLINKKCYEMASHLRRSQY

B1: scFv against PFN1 (recombinant single-chain variable fragment antibody generated by the Structural Genomics Consortium) (scFv, V domains shown)
VH: EVQLLESGGGLVQPGGSLRLSCAASGFTFYSSYMYWVRQAPGKGLEWVSSISGYGGYTYYADSVKGRFTISRDNSKNTLYLQMNSLRAEDTAVYYCARWDGYMDYWGQGTLVTVSS
VL: DIQMTQSPSSLSASVGDRVTITCRASQSISSYLNWYQQKPGKAPKLLIYAASSLQSGVPSRFSGSGSGTDFTLTISSLQPEDFATYYCQQYWDYGLPTFGQGTKLEIK
notes: selected by phage display against recombinant biotinylated antigen; plasmid deposited at Addgene (id not given); also called the scFv against PFN1; custom scFv antibody
- binding result: binds
